Assay results: patent EP4335870A1 (NantCell, Inc., dated 2024)

B1: N-612-004 (antibody, V domains shown)
VH: EVQLVESGGGLVQPGGSLRLSCAASGFTFSSYYMHWVRQAPGKGLEWVSAISGSGGYTYYADSVKGRFTISRDNSKNTLYLQMNSLRAEDTAVYYCARDRDHAYDWGFDVWGQGTLVTVSS
VL: DIQMTQSPSSLSASVGDRVTITCQASQDISNYLNWYQQKPGKAPKLLIYDASNLETGVPSRFSGSGSGTDFTFTISSLQPEDIATYYCQQWADWPLTFGQGTKVEIK
B2: N-612-056-21 (antibody, V domains shown)
VH: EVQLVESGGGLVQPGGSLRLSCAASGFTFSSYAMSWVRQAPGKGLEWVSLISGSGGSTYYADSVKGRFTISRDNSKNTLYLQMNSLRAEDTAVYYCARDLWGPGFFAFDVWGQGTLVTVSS
VL: DIQMTQSPSSLSASVGDRVTITCQASQDISNYLNWYQQKPGKAPKLLIYDASNLETGVPSRFSGSGSGTDFTFTISSLQPEDIATYYCQQDAGTPLTFGQGTKVEIK
B3: N-612-056 (antibody, V domains shown)
VH: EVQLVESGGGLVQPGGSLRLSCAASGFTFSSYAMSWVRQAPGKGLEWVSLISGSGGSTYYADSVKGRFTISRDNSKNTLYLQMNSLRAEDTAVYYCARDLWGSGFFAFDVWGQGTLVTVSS
VL: DIQMTQSPSSLSASVGDRVTITCQASQDISNYLNWYQQKPGKAPKLLIYDASNLETGVPSRFSGSGSGTDFTFTISSLQPEDIATYYCQQDAGTPLTFGQGTKVEIK
B4: N-612-014 (antibody, V domains shown)
VH: EVQLVESGGGLVQPGGSLRLSCAASGFTFSSYAMTWVRQAPGKGLEWVSYISGSGGGTYYADSVKGRFTISRDNSKNTLYLQMNSLRAEDTAVYYCARDRWASGWLAFDVWGQGTLVTVSS
VL: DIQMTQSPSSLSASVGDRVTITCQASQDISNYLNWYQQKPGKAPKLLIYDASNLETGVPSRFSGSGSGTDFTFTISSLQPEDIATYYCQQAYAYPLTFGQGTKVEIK
B5: N-612-017 (antibody, V domains shown)
VH: EVQLVESGGGLVQPGGSLRLSCAASGFTFSSYAMHWVRQAPGKGLEWVSAIWGSGSNTYYADSVKGRFTISRDNSKNTLYLQMNSLRAEDTAVYYCARGRDLAAFTKTAFDVWGQGTLVTVSS
VL: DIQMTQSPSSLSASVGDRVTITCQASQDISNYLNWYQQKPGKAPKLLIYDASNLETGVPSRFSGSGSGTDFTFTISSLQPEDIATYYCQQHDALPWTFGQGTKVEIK
B6: N-612-017-5B05 SV (antibody, V domains shown)
VH: EVQLVESGGGLVQPGGSLRLSCAASGFTFSSYVMHWVRQAPGKGLEWVSAIWGSGSNTYYADSVKGRFTISVDNSKNTLYLQMNSLRAEDTAVYYCARGEELAAFTKTAFDVWGQGTLVTVSS
VL: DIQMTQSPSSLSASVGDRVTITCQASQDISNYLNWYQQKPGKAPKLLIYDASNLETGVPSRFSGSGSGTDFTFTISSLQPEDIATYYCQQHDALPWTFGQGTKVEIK
B7: N-612-007 (antibody, V domains shown)
VH: EVQLVESGGGLVQPGGSLRLSCAASGFTFSNYAMHWVRQAPGKGLEWVSAISGNGGSTGYADSVKGRFTISRDNSKNTLYLQMNSLRAEDTAVYYCARDRWYVKNAFDVWGQGTLVTVSS
VL: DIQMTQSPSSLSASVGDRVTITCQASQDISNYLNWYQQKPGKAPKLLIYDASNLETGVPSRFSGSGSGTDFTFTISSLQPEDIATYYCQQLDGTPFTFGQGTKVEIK

Legend:
[1] = target: SARS-CoV-2 Spike protein on live SARS-CoV-2 (SARS-CoV-2, UniProt P0DTC2 14-1273); assay: cell-based or functional assay
[2] = target: SARS-CoV-2 Spike receptor binding domain (RBD), wildtype (SARS-CoV-2, UniProt P0DTC2 319-541)

| Binder | live SARS-CoV-2 neutralization IC50 [1] [µg/mL] | Kd [2] [nM] |
| --- | --- | --- |
| B1 | 0.194 | – |
| B2 | – | 0.41 |
| B3 | 0.855 | 2.98 |
| B4 | 0.00791 | – |
| B5 | 0.0756 | 5.29 |
| B6 | – | 6.62 |
| B7 | 0.0452 | – |
